Test results as given in patent US20100323443A1 (BIOLAMINA, published 2010).

Legend:
[1] = molecular target: β1-integrin on mouse embryonic stem cells (mouse) (UniProt P09055); experiment: cell-based or functional assay
[2] = molecular target: T1, human recombinant laminin-511 (human, UniProt O15230 36-3695; P07942 22-1786; P11047 34-1609); experiment: summary of the adhesion-blocking assays
T1 construct: Coated on plates (30 ug/ml) in the adhesion assays; also called laminin-10
Description: Attachment assay was performed as described ([Extracellular Matrix Protocols, 2000). Briefly, MaxiSorp 96-well plates (Nunc) coated by extracellular matrix proteins as described above and blocked by 1% heat-denatured BSA solution. Undifferentiated embryonic cells were plated at cell density of 800 cell/mm² upon extracellular matrix-coated plates and were left to adhere for 1 hour at 37° C. Non-adherent cells were washed away, and adherent cells were fixed for 20 min by 5% glutaraldehyde, stained by 0.1% Crystal Violet.
Adhesion-blocking assays were performed as described previously. […] Non-attached cells were removed and the remaining cells were fixed, stained and quantified as described above (Cell adhesion assay). Error bars show standard error (SEM).

Molecule: human recombinant laminin-511, O15230 36-3695; P07942 22-1786; P11047 34-1609
- Blocking those integrins inhibits ES cell adhesion to LN-511 [1]: 100%

B1: α6β1 integrin on mouse embryonic stem cells (receptor)
chain 1: FNLDTREDNVIRKSGDPGSLFGFSLAMHWQLQPEDKRLLLVGAPRAEALPLQRANRTGGLYSCDITSRGPCTRIEFDNDADPMSESKEDQWMGVTVQSQGPGGKVVTCAHRYEKRQHVNTKQESRDIFGRCYVLSQNLRIEDDMDGGDWSFCDGRLRGHEKFGSCQQGVAATFTKDFHYIVFGAPGTYNWKGIVRVEQKNNTFFDMNIFEDGPYEVGGETDHDESLVPVPANSYLGFSLDSGKGIVSKDDITFVSGAPRANHSGAVVLLKRDMKSAHLLPEYIFDGEGLASSFGYDVAVVDLNADGWQDIVIGAPQYFDRDGEVGGAVYVYINQQGKWSNVKPIRLNGTKDSMFGISVKNIGDINQDGYPDIAVGAPYDDLGKVFIYHGSPTGIITKPTQVLEGTSPYFGYSIAGNMDLDRNSYPDLAVGSLSDSVTIFRSRPVINILKTITVTPNRIDLRQKSMCGSPSGICLKVKACFEYTAKPSGYNPPISILGILEAEKERRKSGLSSRVQFRNQGSEPKYTQELTLNRQKQRACMEETLWLQENIRDKLRPIPITASVEIQEPSSRRRVNSLPEVLPILNSNEAKTVQTDVHFLKEGCGDDNVCNSNLKLEYKFGTREGNQDKFSYLPIQKGIPELVLKDQKDIALEITVTNSPSDPRNPRKDGDDAHEAKLIATFPDTLTYSAYRELRAFPEKQLSCVANQNGSQADCELGNPFKRNSSVTFYLILSTTEVTFDTTDLDINLKLETTSNQDNLAPITAKAKVVIELLLSVSGVAKPSQVYFGGTVVGEQAMKSEDEVGSLIEYEFRVINLGKPLKNLGTATLNIQWPKEISNGKWLLYLMKVESKGLEQIVCEPHNEINYLKLKESHNSRKKRELPEKQIDDSRKFSLFPERKYQTLNCSVNVRCVNIRCPLRGLDSKASLVLRSRLWNSTFLEEYSKLNYLDILLRASIDVTAAAQNIKLPHAGTQVRVTVFPSKTVAQYSGVAWWIILLAVLAGILMLALLVFLLWKCGFFKRSRYDDSIPRYHAVRIRKEEREIKDEKHMDNLEKKQWITKWNENESYS
chain 2: QTDKNRCLKANAKSCGECIQAGPNCGWCTNTTFLQEGMPTSARCDDLEALKKKGCQPSDIENPRGSQTIKKNKNVTNRSKGMAEKLRPEDITQIQPQQLLLKLRSGEPQKFTLKFKRAEDYPIDLYYLMDLSYSMKDDLENVKSLGTDLMNEMRRITSDFRIGFGSFVEKTVMPYISTTPAKLRNPCTSEQNCTSPFSYKNVLSLTDRGEFFNELVGQQRISGNLDSPEGGFDAIMQVAVCGSLIGWRNVTRLLVFSTDAGFHFAGDGKLGGIVLPNDGQCHLENNVYTMSHYYDYPSIAHLVQKLSENNIQTIFAVTEEFQPVYKELKNLIPKSAVGTLSGNSSNVIQLIIDAYNSLSSEVILENSKLPDGVTINYKSYCKNGVNGTGENGRKCSNISIGDEVQFEISITANKCPNKESETIKIKPLGFTEEVEVVLQFICKCNCQSHGIPASPKCHEGNGTFECGACRCNEGRVGRHCECSTDEVNSEDMDAYCRKENSSEICSNNGECVCGQCVCRKRDNTNEIYSGKFCECDNFNCDRSNGLICGGNGVCRCRVCECYPNYTGSACDCSLDTGPCLASNGQICNGRGICECGACKCTDPKFQGPTCETCQTCLGVCAEHKECVQCRAFNKGEKKDTCAQECSHFNLTKVESREKLPQPVQVDPVTHCKEKDIDDCWFYFTYSVNGNNEAIVHVVETPDCPTGPDIIPIVAGVVAGIVLIGLALLLIWKLLMIIHDRREFAKFEKEKMNAKWDTGENPIYKSAVTTVVNPKYEGK
notes: whole, on cells
- binding result [2]: binds

B2: αVβ1 integrin on mouse embryonic stem cells (receptor)
chain 1: FNLDVESPAEYAGPEGSYFGFAVDFFEPSTSSRMFLLVGAPKANTTQPGIVEGGQVLKCECSSSRRCQPIEFDSTGNRDYAKDDPLEFKSHQWFGASVRSKQDKILACAPLYHWRTEMKQEREPVGTCFLQDGTKTVEYAPCRSKNIDADGQGFCQGGFSIDFTKADRVLLGGPGSFYWQGQLISDQVAEIISKYDPNVYSIKYNNQLATRTAQAIFDDSYLGYSVAVGDFNGDGIEDFVSGVPRAARTLGMVYIYDGKNMSSLHNFTGEQMAAYFGFSVAATDINGDDYADVFIGAPLFMDRGSDGKLQEVGQVSVSLQRAVGDFQTTKLNGFEVFARFGSAIAPLGDLDQDGFNDIAIAAPYGGEDKKGLVYIFNGRSTGLNSVPSQILEGQWAAQSMPPSFGYSMKGATDVDRNGYPDLVVGAFGVDRAVLYRARPVVTVNAGLEVYPSILNQDNKICPLPGTALKVSCFNVRFCLKADGKGTLPRKLHFQVELLLDKLKQKGAIRRALFLHNRSPVHSKTMTVFRGGQMQCEELVAYLRDESEFRDKLTPITIFMEYRLDQRTAADATGLQPILNQFTPANVSRQAHILLDCGEDNVCKPKLEVSVNSDQKKIYIGDDNPLTLTVKAQNQGEGAYEAELIVSIPPQADFIGVVRNNEALARLSCAFKTENQTRQVVCDLGNPMKAGTQLLAGLRFSVHQQSEMDTSVKFDLKIQSSNSFDNVSPVVSYKVDLAVLAAVEIRGVSSPDHIFLPIPNWEYKENPETEEDVGPIVQHIYELRNNGPSSFSKAILNLQWPYKYNNNTLLYILHYDIDGPMNCTADTEINPLRIKTPEKNDTAAAGQGERNHLITKRDLTLREGDVHTLGCGIAKCLQITCQVGRLDRGKSAILYVKSLLWTETFMNKENQNHSYSLKSSASFNIIEFPYKNLPIEDLFNSTLVTTNITWGIQPAPMPVPVWVIILAVLAGLLLLAVLVFVMYRMGFFKRVRPPQEEQEREQLQPHENGEGNSET
chain 2: B1 chain 2
notes: whole, on cells
- binding result [2]: binds
